Measured values: patent US20100009390A1, “MUTANT ANTIBODIES WITH HIGH AFFINITY FOR EGFR” (THE REGENTS OF THE UNIVERSITY OF CALIFORNIA, priority 2008, published 2010)
Entries after “also recorded” stand apart in the source; their conditions may differ. Like-named read-outs stand apart in the source and are kept apart here.

What was measured:
A431 cells = molecular target: T1, A431 cells (Homo sapiens, UniProt P00533); test: Binding specificity of scFv by flow cytometry; conditions: A431, 1×10^6-3×10^6 EGFR/cell
T1 construct: endogenous in cells; host or cells: A431 cells

biotinylated EGFR-ECD = molecular target: T2, biotinylated EGFR-ECD (Homo sapiens, UniProt P00533); test: Yeast-displayed scFv affinity for biotinylated EGFR-ECD by flow cytometry; type: binding; conditions: concentrations as high as 8 μM
T2 construct: Recombinant EGFR-ECD was expressed in HEK293 cells; biotin (chemical label, NHS-sulfo-LC-biotin on amines); made in house; host or cells: HEK293 cells
Method: Generally, six to eight different concentrations of biotinylated EGFR were used to span a range of concentrations from ten times above to ten times below the KD. Incubation volumes, times and yeast numbers were chosen to ensure that the studies were done in at least fivefold antigen excess and that equilibrium had been achieved (Razai et al. (2005) J. Mol. Biol. 351: 158-169). For anti-EGFR scFv, […] in 50 μl were incubated with biotinylated EGFR-ECD for 1 h at room temperature. […] Only yeast displaying scFv (as determined by binding of SV5 mAb) were gated for affinity measurements.

MDAMB468 cells = test: Binding specificity of scFv by flow cytometry; design: species or system Human; conditions: MDAMB468, 1×10^6-3×10^6 EGFR/cell
[1] = molecular target: T3, EGFR (vIII) stably transfected NR6M cells (Homo sapiens, UniProt P00533, DELINS30-297G); test: Binding specificity of scFv by flow cytometry
T3 construct: expressed in transfected cells; host or cells: NR6M cells (NR6 stably transfected with EGFR (vIII)), gift of Dr Daryl D Bigner
Method: (§1) The binding of C10 scFv and C10 mutants to EGFR (vIII) stably transfected NR6M cells and parental NR6 cells was also measured.

parental NR6 cells = test: Binding specificity of scFv by flow cytometry; conditions: NR6, EGFR negative
Method: as §1

[2] = molecular target: T4, MDAMB468 cells expressing EGFR (Homo sapiens, UniProt P00533); test: Immunoliposome binding affinity for cells expressing EGFR (flow cytometry); conditions: read-out: Apparent KD of immunoliposomes
T4 construct: Human breast cancer MDAMB468 cells expressing EGFR; endogenous in cells; host or cells: MDAMB468 breast carcinoma cells
Method: Human breast cancer MDAMB468 cells expressing EGFR were grown to 80-90% confluence in L15 medium supplemented with 10% FBS and harvested by trypsinization. ILs labeled with DiIC18(3)-DS were incubated overnight with 10^4 cells at concentrations of IL ranging from 0.31-2.5 nM. The concentration of IL was converted from the concentration of phospholipid on the basis of the approximate number of phospholipid molecules per liposome (80,000). Cell binding was performed at 4° C. in FACS buffer in adequate volume to ensure a fivefold excess of ILs and that the reaction had come to equilibrium. After two washes with 200 μl of FACS buffer, the amount of cell-bound ILs was quantified by flow cytometry in a FACS LSRII (Becton Dickinson). Data analysis was the same as for the measurement of scFv KD.

MDAMB453 cells = test: Binding specificity of scFv by flow cytometry; conditions: MDAMB453, only 10^4 EGFR/cell
[3] = tested on: EGFR-over-expressing MDAMB468 cells; test: Internalization/uptake of anti-EGFR immunoliposomes (microscopy, flow cytometry); type: cell-based, Human
Method: (§2) scFv-mediated internalization of fluorescent immunoliposomes was analyzed and quantified by microscopy and flow cytometry. C10 scFv fragments were inserted into liposomes at ratios of 5, 10, 15, 30 and 60 μg scFv/μmol phospholipid (Mamot et al. (2003) Cancer Res. 63: 3154-3161). scFv densities of 16, 32, 48, 96 and 192 scFv/liposome were calculated on the basis of the molecular mass of scFv (26 kDa) and the approximate number of phospholipid molecules/liposome (80,000). The conjugation technology for scFv to Mal-PEG-DSPE is remarkably reproducible with an efficiency of 77.3(±3.1) % (range 75-82% over six batches) (Nellis et al. (2005) Biotechnol. Prog. 21: 205-220). […] For microscopy studies, 150,000 cells were incubated with 50 μM PL of untargeted and EGFR-targeted ILs labeled with DiIC18(3)-DS in a 12-well plate for 2 h at 37° C., followed by washing with PBS and further incubation at 37° C. for 2 h. The cells were then analyzed by using an inverted fluorescence microscope (Nikon Eclipse, TE300) with a 540/25 nm band-pass filter for excitation and a long-pass filter at 565 nm for emission. For quantitative uptake of immunoliposomes, 250,000 cells were incubated with EGFR-targeted ILs labeled with ADS645 in a six-well plate for 2 h at 37° C., washed with PBS, removed in trypsin solution and fluorescence quantified with a FACSAria instrument (Beckton Dickinson). To determine the effect of EGF competition on internalization of EGFR-targeted ILs, IL internalization was quantified as described above, except that 50 μM targeted ILs and cells were incubated with EGF concentrations ranging from 0.2-25 nM. ANOVA (analysis of variance) was used to analyze the statistical differences of the quantified uptake.

MDAMB231 cells = test: Uptake of EGFR immunoliposomes into cells of lower EGFR density; type: cell-based, human; conditions: all scFv densities studied; 480,000 EGFR/cell
Method: as §2
To determine the impact of receptor density on IL uptake, we measured the uptake of the different ILs into MDAMB231 cells which express 480,000 EGFR/cell as determined by flow cytometry using Quantum Simply Cellular anti-Human IgG beads (Bangs Laboratories Inc.). […] Uptake into MDAMB231 cells increased with increasing scFv density, reaching a plateau at an IL scFv density of 74 scFv/IL for P2/4 scFv and at 37 scFv/IL for 2224 scFv (FIG. 6C).

[4] = molecular target: T5, EGFR-expressing A431 cells (Homo sapiens, UniProt P00533); conditions: Heitner et al. (2001); read-out: KD of C10 scFv previously measured on EGFR-expressing tumor cells; cited from earlier work
T5 construct: host or cells: A431 cells

B1: C10: parental (wild-type) internalizing anti-EGFR human scFv from a non-immune phage antibody library; SEQ ID NO:1 (protein)
scFv: EVQLVQSGAEVKKPGSSVKVSCKASGGTFSSYAISWVRQAPGQGLEWMGGIIPIFGTANYAQKFQGRVTITADESTSTAYMELSSLRSEDTAVYYCAREEGPYCSSTSCYGAFDIWGQGTLVTVSS
modifications: Variable chain of single chain antibody.
A431 cells
  scFv binding/staining of cells: stained
Biotinylated EGFR-ECD
  binding of yeast-displayed scFv to biotinylated recombinant EGFR: minimal binding
MDAMB468 cells
  scFv binding/staining of cells: stained
[1]
  scFv binding/staining of cells: strong staining; also recorded: stained
Parental NR6 cells
  scFv binding/staining of cells: minimal binding; also recorded: did not stain
[2]; 74 scFv/liposome
  Kd: 1.75 nM
[2]; 148 scFv/liposome
  Kd: 0.36 nM
MDAMB453 cells
  scFv binding/staining of cells: did not stain
[3]; 74 scFv/liposome, MDAMB468
  endocytosis of ILs by fluorescence microscopy: endocytosed efficiently
[3]; scFv densities of 74 scFv/liposome or less
  IL uptake compared to ILs from higher affinity scFv: less uptake
MDAMB231 cells
  IL uptake into MDAMB231 cells compared to A431 cells: significantly less uptake
[4]
  Kd: 217 nM
